Assay results taken from the Immune Epitope Database (IEDB).
pIC50, pKd: −log10 of the molar value. One block for each sequence: values may come before it.

Tests used:
HLA-C*07:02 = experiment: IEDB peptide-MHC binding, purified MHC/direct/fluorescence; filed as Kd, often an IC50 or EC50 that approximates it; ≥ and ≤ were set here for values at or beyond the usual limits of such assays; details: source organism: SARS-CoV1
HLA-A*24:02 [1] = experiment: IEDB peptide-MHC binding, purified MHC/competitive/fluorescence; filed as Kd, often an IC50 or EC50 that approximates it; ≥ and ≤ were set here for values at or beyond the usual limits of such assays
HLA-A*01:01 [2] = experiment: IEDB peptide-MHC binding, purified MHC/competitive/radioactivity; filed as Kd, often an IC50 or EC50 that approximates it; ≥ and ≤ were set here for values at or beyond the usual limits of such assays; details: source organism: SARS coronavirus Tor2
HLA-A*29:02 [3] = experiment: as above; details: source organism: SARS coronavirus Tor2
HLA-A*30:02 = experiment: as above; details: source organism: SARS coronavirus Tor2
HLA-A*23:01 = experiment: as above; details: source organism: SARS coronavirus Tor2
HLA-A*26:01 = experiment: as above; details: source organism: SARS coronavirus Tor2
HLA-A*01:01 [4] = experiment: IEDB peptide-MHC binding, purified MHC/competitive/fluorescence; ≥ and ≤ were set here for values at or beyond the usual limits of such assays
HLA-B*08:01 = experiment: as above
HLA-B*40:02 = experiment: as above
HLA-A*02:01 [5] = experiment: as above
HLA-B*07:02 [6] = experiment: as above
HLA-A*29:02 [7] = experiment: as above
HLA-B*35:01 = experiment: as above
HLA-A*11:01 [8] = experiment: as above
HLA-B*53:01 = experiment: as above
HLA-A*68:02 = experiment: as above
HLA-B*18:01 = experiment: as above
HLA-A*24:02 [9] = experiment: as above
HLA-A*31:01 = experiment: as above
HLA-B*58:01 [10] = experiment: as above
HLA-B*51:01 = experiment: as above
HLA-A*25:01 = experiment: as above
HLA-B*44:03 = experiment: as above
HLA-B*14:02 = experiment: as above
HLA-B*37:01 = experiment: as above
HLA-A*03:01 [11] = experiment: as above
HLA-A*02:50 = experiment: IEDB peptide-MHC binding, purified MHC/competitive/fluorescence; filed as Kd, often an IC50 or EC50 that approximates it; ≥ and ≤ were set here for values at or beyond the usual limits of such assays; details: source organism: Pseudomonas sp. MIS38
HLA-A*01:01 [12] = experiment: as above; details: source organism: Pseudomonas sp. MIS38
HLA-B*40:01 = experiment: as above; details: source organism: Pseudomonas sp. MIS38
HLA-A*30:01 = experiment: as above; details: source organism: Pseudomonas sp. MIS38
HLA-A*69:01 = experiment: as above; details: source organism: Pseudomonas sp. MIS38
HLA-A*02:01 [13] = experiment: as above; details: source organism: Pseudomonas sp. MIS38
HLA-B*07:02 [14] = experiment: as above; details: source organism: Pseudomonas sp. MIS38
HLA-A*02:16 = experiment: as above; details: source organism: Pseudomonas sp. MIS38
HLA-A*11:01 [15] = experiment: as above; details: source organism: Pseudomonas sp. MIS38
HLA-A*02:19 = experiment: as above; details: source organism: Pseudomonas sp. MIS38
HLA-A*02:12 = experiment: as above; details: source organism: Pseudomonas sp. MIS38
HLA-B*15:01 = experiment: as above; details: source organism: Pseudomonas sp. MIS38
HLA-B*58:01 [16] = experiment: as above; details: source organism: Pseudomonas sp. MIS38
HLA-A*02:06 = experiment: as above; details: source organism: Pseudomonas sp. MIS38
HLA-A*02:03 = experiment: as above; details: source organism: Pseudomonas sp. MIS38
HLA-B*27:05 = experiment: as above; details: source organism: Pseudomonas sp. MIS38
HLA-A*02:11 = experiment: as above; details: source organism: Pseudomonas sp. MIS38
HLA-A*03:01 [17] = experiment: as above; details: source organism: Pseudomonas sp. MIS38
[18] = source organism: Gorilla gorilla gorilla
[19] = source organism: Monodelphis domestica

Sequence: NYMPYVFTL
- pKd (HLA-C*07:02): ≥ 9.00
- pKd (HLA-A*24:02 [1]; source organism: SARS-CoV1): ≥ 10.00
- pKd (HLA-A*01:01 [2]): ≤ 4.11
- pKd (HLA-A*29:02 [3]): 6.43
- pKd (HLA-A*30:02): 4.74
- pKd (HLA-A*23:01): 8.20
- pKd (HLA-A*26:01): ≤ 4.29

- pIC50 (HLA-A*01:01 [4]; [18]): ≤ 4.70
- pIC50 (HLA-B*08:01; [18]): ≤ 4.70
- pIC50 (HLA-B*40:02; [18]): ≤ 4.70
- pIC50 (HLA-A*02:01 [5]; [18]): ≤ 4.70
- pIC50 (HLA-B*07:02 [6]; [18]): 4.76
- pIC50 (HLA-A*29:02 [7]; [18]): ≤ 4.70
- pIC50 (HLA-B*35:01; [18]): ≤ 4.70
- pIC50 (HLA-A*11:01 [8]; [18]): ≤ 4.70
- pIC50 (HLA-B*53:01; [18]): ≤ 4.70
- pIC50 (HLA-A*68:02; [18]): ≤ 4.70
- pIC50 (HLA-B*18:01; [18]): ≤ 4.70
- pIC50 (HLA-A*24:02 [9]; [18]): 6.79
- pIC50 (HLA-A*31:01; [18]): ≤ 4.70
- pIC50 (HLA-B*58:01 [10]; [18]): ≤ 4.70
- pIC50 (HLA-B*51:01; [18]): ≤ 4.70
- pIC50 (HLA-A*25:01; [18]): ≤ 4.70
- pIC50 (HLA-B*44:03; [18]): ≤ 4.70
- pIC50 (HLA-B*14:02; [18]): ≤ 4.70
- pIC50 (HLA-B*37:01; [18]): ≤ 4.70
- pIC50 (HLA-A*03:01 [11]; [18]): ≤ 4.70
Sequence: RYSHWTKL

- pKd (HLA-A*02:50): 7.52
- pKd (HLA-A*01:01 [12]): ≤ 4.70
- pKd (HLA-B*40:01): ≤ 4.70
- pKd (HLA-A*30:01): ≤ 4.70
- pKd (HLA-A*69:01): 5.70
- pKd (HLA-A*02:01 [13]): 7.22
- pKd (HLA-B*07:02 [14]): ≤ 4.70
- pKd (HLA-A*02:16): 9.30
- pKd (HLA-A*11:01 [15]): ≤ 4.70
- pKd (HLA-A*02:19): 7.94
- pKd (HLA-A*24:02 [1]; source organism: Pseudomonas sp. MIS38): ≤ 4.70
- pKd (HLA-A*02:12): 8.72
- pKd (HLA-B*15:01): 5.47
- pKd (HLA-B*58:01 [16]): ≤ 4.70
- pKd (HLA-A*02:06): 8.64
- pKd (HLA-A*02:03): 8.38
- pKd (HLA-B*27:05): ≤ 4.70
- pKd (HLA-A*02:11): 8.03
- pKd (HLA-A*03:01 [17]): ≤ 4.70
Sequence: YMLKDSAPT

- pIC50 (HLA-A*01:01 [4]; [19]): ≤ 4.70
- pIC50 (HLA-B*08:01; [19]): ≤ 4.70
- pIC50 (HLA-B*40:02; [19]): ≤ 4.70
- pIC50 (HLA-A*02:01 [5]; [19]): ≤ 4.70
- pIC50 (HLA-B*07:02 [6]; [19]): ≤ 4.70
- pIC50 (HLA-A*29:02 [7]; [19]): ≤ 4.70
- pIC50 (HLA-B*35:01; [19]): ≤ 4.70
- pIC50 (HLA-A*11:01 [8]; [19]): 5.54
- pIC50 (HLA-B*53:01; [19]): ≤ 4.70
- pIC50 (HLA-A*68:02; [19]): ≤ 4.70
- pIC50 (HLA-B*18:01; [19]): ≤ 4.70
- pIC50 (HLA-A*24:02 [9]; [19]): ≤ 4.70
- pIC50 (HLA-A*31:01; [19]): ≤ 4.70
- pIC50 (HLA-B*58:01 [10]; [19]): ≤ 4.70
- pIC50 (HLA-B*51:01; [19]): ≤ 4.70
- pIC50 (HLA-A*25:01; [19]): ≤ 4.70
- pIC50 (HLA-B*44:03; [19]): ≤ 4.70
- pIC50 (HLA-B*14:02; [19]): ≤ 4.70
- pIC50 (HLA-B*37:01; [19]): ≤ 4.70
- pIC50 (HLA-A*03:01 [11]; [19]): ≤ 4.70
Sequence: YSLEYFQFVKK
